Publication PMC10730906

Target: purified TslA lipase domain (N-terminal domain of SAOUHSC_00406) (S. aureus) (UniProt Q2G0W8)
Assay: ITC; 30 uM TslA in the cell, 300 uM TilA in the syringe; 20 mM HEPES pH 7.5, 150 mM NaCl, 25 °C; Microcal PEAQ-ITC

B1: purified TilA lacking its signal sequence, His tag removed (SAOUHSC_00405) (natural protein)
chain: CGNMKDEQKKEEQTNKTDSKEEQIKKSFAKTLDMYPIKNLEDLYDKEGYRDGEFKKGDKGTWTILTGFSKSNKPGVLDDEGMVLYLNRNTKKATGYYFVNKVYDDISKNHNEKKYRVELKNNKIVLLDNVEDKKLKQKIENFKFFSQYADFKDLKNYQDGNITTNENVPSYEAQYKMNNSDKNVKKLREIYPITTNNSPNLKLYIDGDIKGSSVGYKKIEYKFSKDKGQETTLRDYLNFGPSEGENVE
- Kd: 14.2 nM
- dH: -20.5 kcal/mol
- stoichiometry N: 0.88
